Experiment: yeast display, Sf9 membrane polyspecificity reagent, FACS + sequencing; frameworks hold sequencing errors
How it was run: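 In a synthetic yeast display library (Saccharomyces cerevisiae BJ5465), nanobody expression was induced with galactose for 36–48 hours. FACS gates were set low and high (top ~1%) using anti-HA fluorescence for expression and streptavidin fluorescence for binding of the Sf9 membrane reagent. Each polyreactivity label is drawn from the gate of origin.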

Sequence	polyreactivity (PSR sort gate)
QVQLVESGGGLVQAGGSLRLSCAASGIIFEYYAMGWYRQAPGKEWELVAAITDDGVVTYYGDSVKGRFTISRDNAKNTVYLQMNSLKPEDTAVYYCAAESYWTATYTYDYWGQGTQVTVSS	high polyreactivity
QVQLVESGGGLVQAGGSLRLSCAASGRIFAAYAMGWYRQAPGKERELVAGISRGGRTYYADSVKGRFTISRDNAKNTVYLQMNSLKPEDTAVYYCAKRATGQYSITTYGYDYWGQGTQVTVSS	low polyreactivity
QVQLVESGGGLVQAGGSLRLSCAASGGLFIRYGMGWYRPAPGKERELVAGIDSGGGTNYADSVKGRFTISRDNAKNTVYLQMNSLKPEDTAVYYCARRQGYGFLYGRPYGYWGQGTQVTVSS	low polyreactivity
QVQVVESGGGLVQAGGSLRLSCAASGIIFKQNVMGRYIQAPGKERELVAAISRGGSTNYADSLKGRFTISRDNAKNTVYLQMNSLKPEDTEVYYCAARFVLRREYGYWGQGTQVTVSS	high polyreactivity
QVQLVESGGGLVQAGGSLRLSCAASGSTFPQYAMGWYRQAPGKERELVAAISRSGGSTYYADSVKGRFTISRDNAKNTVYLQMNSLKPEDTAVYYCNVKSGFWFYPTMDYWGQGTQVTVSS	high polyreactivity
QVQLVESGGGLVQAGGSLRLSCAASGSTFYRYAMGWYRQAPGKERELVARITQNGGSTYYADSVKGRFTISRDNAKNTVYLQMNSLKPEDTAVYYCADRWISVLSYGKYDYWGQGTQVTVSS	high polyreactivity
QVQLVESGGCLVQAGGSLRLSCAASGFIFRQYAMGWYRQAPGKERELVAAISTGGGRTYYADSVKGRFTISRDNAKNTVYLQMNSLKPEDTAVYYCAAGYPYSYRDYYYWGQGTQVTVSS	high polyreactivity
QVQLVESGGGLVQAGGSLRLSCAASGYIFKYNTMGWYRQAPGKERELVAAISTGGNTYYADSVKGRFTISRDNAKNTVYLQMNSLKPEDTAVYYCAALSGAHEHFVEYDYWGQGTQVTVSS	low polyreactivity
QVQLVESGGGLVQAGGSLRFSCAASGYIFTPYAMGWYRQAPGKERELVAAISWSGGSTYYADSVKGRFTISRDNEKNTVYLQMNSLKPEDTAVYYCAAESAWGSRVFYSKFYYWGQGTQVTVSS	low polyreactivity
QVQLVESGGGLVQAGGSLRLRCAASGSIFAHYTMGWYRQAPGKERELVAVISRSGARTYYADSVKGRFTISRDNAKNTVYLQMNSLKPEDTEVYYCAADRTLEEDYWGQGTQVTVSS	low polyreactivity
QVQLVESGGGLVQAGGSLRLSCADSGRTFTGYVMGWYRQAPGKEREFVAVIRYRGGGTYYAYSVKGRFTISRDNAKNTVYLQMNSLKPEDTAVYYCSARWRYSYVGDFDYWGQGTQVTVSS	high polyreactivity
QVQLVESGGGLVQAGGSLRLSCAASGRTFSIYVMGWYRQAPGKERELVAAITSGGRTYYADSVKGRFTISRDNAKNTVYLQMNSLKPEDTAGYYCAAGYWRPGQYYSRYNYWGQGTQVTVSS	high polyreactivity
QVQLVESGGGLVQAGGSLRLSCAASGITFYYYAMGWYRQAPGKERELVADISSSGGSTYYADSVKGRFTISRDNAKNTVYLQMNSLKPEDTAVYYCNAVYRWYRPRVRFFRYDYWGQGTQVTVSS	high polyreactivity
QVQLVESGGGLVQAGGSLRLSCAASGGIFKYYAMGWSRQAPGTERELVAAITSGGNTNYAESVKGRFTISRDNAKNTVYLQMNSQKPEDTAVYYCSARSISRRTWQYNYWGQGTQVTVSS	high polyreactivity
QVQLVESGGGLVQAGGSLRLSCAASGIIFYVNAMGWYRQAPGKERELVAAITFGGDSTYYADSVKGRFTISRDNAKNTVYLQMNSLKPEDTAVYYCAADYVALYYWYDYWGQGTQVTVSS	low polyreactivity
QVQLVESGGGLVQAGGSLRLSCAASGSTISGYAMGWYRQAPGKEREFVASIRRSGGSTYYADSVKGRFTISRDNAKNTVYLQMNSLKPEDTAVYYCAKRYVVSRGDYWGQGTQVTVSS	high polyreactivity
PVQLVESGGGLVQAGGSLRLSCAASGIIFYDYAMGWYRQAPGKERELGATITSGGSTNYADSVKGRFTISRDNAKNTVYLQLNSLKPEDTAVYYCAAGRGLILGGVYGYDYWGQGTQVTVSS	low polyreactivity
QVQLVESGGGLVQAGGSLRLSCAASGLIFYVYAMGWYRQAPGKERELVADITYSGGRTYYADSVKGRFTISRDKAKNTVYLQMNSLKPEDTAVYYCAADSVKYGIDPGLPNSDDYWGQGTQVTVSS	low polyreactivity
QVQLVESGGGLVQAGGSLRLSCAASGRIFGFYTMGWYRQAPGKERELVAGISRGGSTYYADSVKGRFTISRDNAKNTGYVQMNSLNPEDTAVYDCAADLGWGYEYWGQGTQVTVSS	low polyreactivity
QVQLVESGGGIVQAGGSLRLSCAASGSIFLYYAMGWYRQAPGNERQLVATINWSGGTTYYADSVKGRFTISRDNAKNTVYLQMNSLKPEDTAVYYCNKAKTAYRGQYDYWGQGTQVTVSS	high polyreactivity
QVQLVESGGGLDQAGGSLRLSCAASGRIIRFYAMAWYRQAPGKERELVAAISSRGGSTYYADSVKGRFTISRDNAKNTVYLQKNSLKPEDTAVYYCAKKTWRDYAYNYWGQGTQVTVSS	high polyreactivity
QVQHVESGGGLVQAGGSLRLICAASGLTSYYAMGSYRQAPGKEREIVAAIDGSDGNTYYADSVKGRYTISRDNAKNTVYLQMNSLKPEYTAVYYCNAETVLYWWSWENDYWGQGTQVTVSL	high polyreactivity

Sequence	polyreactivity (PSR sort gate)
QVQLVESGGGLVQAGGTLRLRCAASGFTFRYYVMRWYRQAPGKERELVAAITSGGSTNYADSVKGRFSISRDNAQNTVYLLMNSLKPEDTAVYYCAAGLSYRHNYWGQGTQVTVSS	low polyreactivity
QVQLVESVRGLVQAGGSLRLSCAASGFIFRSYAMGWYRQAPGKEREFVAAISRSGGRTYYADSVKGRFTISRDNAKNTVYLQMNCLKPEDTAVYYCAATVGGSYTFDYWGQGTQVTVSS	high polyreactivity
QVQLVESGGGLVQAGGSLRLSCAASGITFLDNDMGWYRQAPVKERELVAAITSGVSTYYADSVKGRFTISRDNAKNTVYLQMNSLKPEDTAVYYCAADRPDVAGDYGGQGTQVTVSS	low polyreactivity
QVQLVESGAGLVQAGGSLSLSCAASVSILRFYAMGWYRQAPGKERELVAAISTRGGSTYYADSVKGRFTISRVNAKYTVYLQMNSLKPEDTAVYYCAKRWPQYTDYKPMYYWGQGTQLTVSS	high polyreactivity
QLQLVESGGGLDQAGGSLRLSCAASGSIFPGYAMGWYRQAPGKESELVATITWSGGSTYYADSVKGRFTISRDNAKNTVYLQMNSLKPEDTAVYYCNADSNWYYQWNYYGLYDYWGQGTQVTVSS	low polyreactivity
QVQIVESGGGLVQAGGSLRLSCAASGSIFRGYAKGWYRQAPGKERELVAAITQRAGSTYYADSVKGRFTISRDNAKNTVYLQMNSLKPEDTAVYYCAADVFYVFLHRVWYNYWGQGTQVTVSS	low polyreactivity
QVQLVESGGGLVQAGGSLRLICAASGSIFDFYAMGWYRQAPGKERELVAAISRNGGSTYYADSVKGRFTISRDNAKNTFYLQMNSLKPEDTAVYYCNKTVYVGAKEYDYWGQGTQVTVSS	high polyreactivity
QVHLQESGDGLVQPVGSQRLSCAASGYISGNYYMGWYRQAPGTERELVAGIDAFGSSTNYADCVKGRFTISRYNAKNSVYLQMYRLKPEDTAVYYCAAPPDGDRLFSYWGQGTQVTVSS	low polyreactivity
QVQLVESGGGLVQAGGSLRLSCAASGSISPQNVMGWYRQAPGKERELVAAITWTGTSTYADSVKGSFTISRDNAKNTVYLQMNSLKPEDTAVYYCAARYYAPRWFRYDYWGQGTQVTVSS	low polyreactivity
QVQLVESGGGLVQAGGSLRLSCAASGSTFGNYAMGWYRQAPGKERELVATISRSGGSTYYADSVKGRFTISRDNAKNTVYLQMNSLKPEDTAVYYCNRRYYTRKPDYNSWGQGTQVTVSS	high polyreactivity
QVQLVESGGGLVQAGGSLRLSSAASGFTFGSYAMGWYRQAPGKERELVAAIRASGGRTYYADSVKGRFTISRDNAKNTVYLQMNSLKPEDTAVYYCAAQLPMGKRYYYWGQGTQVTVSS	high polyreactivity
QVQHVESGGGLVQARGSLRLSCSASGVIFYNYAMGWSRQAPGKEREFVAAISGSGGSTYYADSVKGRFTISRDNAKNTVYLQMNSLKPEDTAVYYCAVRQRYGPARYDYWGQGTQVTVSS	high polyreactivity
QVQLVESGGGLVQAGGSLRLSCAASGRIFLFNAMGWYRQAPGKEREFVAAISASGGSTYYADSVKGRFTISRDNAKNTVYLQMNSLKPEDTAVYYCAADYLYTRDVDYDYWGQGTQVTVSS	low polyreactivity
QVQLVESGGGLVQAGGSLRLSCAASGITFQYYTMGWYRQAPGKERELVAAISWSTSSTYYADSVKGRFTISRDNAKNTVYLQMNSLKPEDTAVYYCAARYTTRRYYYWGQGTQVTVSS	high polyreactivity
QVQLVESGGGLVQAGGSLRLSCAASGSTFKAYAMGWYRQAPGKERELVAAITRRGTSTYYADSVKGRFTISRDNAKNTVYLQMNSLNPEDTAVYYCNAKYVSDRSSAVSFDYWGQGTQVTVSS	low polyreactivity
QVQLVESGGGLVQAGGSLRLSCAASGRTFAAYAMGWYRQAPGKERELVATIRRGGTTDYADSVKGRFTISRDNAKNTVYLQMNSLKPEDTAVYYCNARSRTYRTRRYDYWGQGTQVTVSS	high polyreactivity
QVQLVESGGGLLQAGGSLRLICAASGFIFVTYAMGLYRQEPGKERELVAAITNSGGTTYYADSVKGRFTISRDNAKNTVYLQMNSLKPEDTAGYYCNKPYGAETAHREFDYWGQGTQVTVSS	low polyreactivity
QVQLVESGGGLVQAGGSLRLSCAASGFTFFRYAMGWYRQAPGKERELVASITSGGSTNYADSVKGRFTISRDNAKNTVYLQMNSLKPEDTAVYYCAAGSSFFRWVYEATGFYYWGQGTQVTVSS	high polyreactivity
QVQLVESGGGLVQAGGSLRLRCDASGRTFFKNAMGWYRQAPGKERELVAAITSTGGRTYYADSVKGRFPISRDTAKNNVYVEMNSLKPEDTAVYYCAASNFYSGYYYWRQGTQVTVSS	high polyreactivity
QVQLVESGGGLFQAGGSLRLSCAASGRIFNSNTMGWYRPAPGKDRELVARIDTGGGSTYADSVKGRFTISRDNAKNTVYLQMNSLQPEDTAVYHCNKIGRWRSWGSTSLVSMDYWGQGTKVTVSS	low polyreactivity
QVLLVEAGGGLVHAGGSLRLSCAASGLIFGYYAMRWYRQAPWKERELVAAISFSGGSSYYADSVKGRFTISRDNAKNTDSLQMNSLKPEDTAVYYCAADLDGSSEYEYWGQGTQVNVSS	low polyreactivity

Reference: the nanobody polyreactivity screen of Harvey et al. (2022)
